Reference: the supplement of paper PMC10724198
± gives the standard deviation of the averaged measurements.

System: Saccharomyces cerevisiae
Test: protein stability index of tFT-peptide fusion (C-terminal peptide) (PSI (0-1 scale)); higher = more stable (slower turnover)
Conditions: genetic background: wild type; temperature: 30 C
Protocol: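 Multiplexed protein stability (MPS) profiling in S. cerevisiae. Random 12-aa peptides (tFT-X12 library) are fused to the C-terminus of a sfGFP-mCherry tandem fluorescent timer, after mCherry and a GGGS linker. Cells are FACS-sorted into 8 mCherry/sfGFP bins and deep-sequenced. The protein stability index (PSI) is the read-weighted bin average, scaled from 0 (unstable) to 1 (stable). Only peptides with >10 reads are reported; cells were grown at 30 °C in SC-His with glucose.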
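Note: PSI is a weighted mean of sequencing reads over stability bins, variants kept only with over 10 reads, mCherry proximal and sfGFP distal, peptide attached via GGGS linker.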

Going from PSPLSPEHPLPI to LPCRRPTPPFPQ, the protein stability index rises from 0.72334 ± 0.00035 to 0.752 ± 0.024.

GMAKGWHCESSS and LPSLRFLFPLVP are within error of each other in protein stability index: 0.716 ± 0.041 for the first, 0.671 ± 0.036 for the second.

Going from GAPAWMLLYSAS to RLGHAIVLLLPC, the protein stability index falls from 0.723 ± 0.029 to 0.57 ± 0.027.

GARGWTVWVAGL and RSPTGSPGRSFS are within error of each other in protein stability index: 0.632 ± 0.049 for the first, 0.687 ± 0.025 for the second.

PAPRPLSPPPTF and APSDRRRTPTPT are within error of each other in protein stability index: 0.699 ± 0.0091 for the first, 0.69 ± 0.013 for the second.

LFPLAPRRLAPP and CPLLSPTPPLRP are within error of each other in protein stability index: 0.628 ± 0.069 for the first, 0.703 ± 0.019 for the second.

PPRVSLLTPSPR and VVVQSGSSYKEY are within error of each other in protein stability index: 0.853 ± 0.21 for the first, 0.7 ± 0.11 for the second.

First: HDWPQTTRADQS
Second: DLPYLYPRCLIS
The protein stability index of the first is lower: 0.677 ± 0.036 for the first, 0.72683 ± 0.00028 for the second.

HGCQGKVRQSHR and ARGALPHHVSCV are within error of each other in protein stability index: 0.651 ± 0.039 for the first, 0.691 ± 0.11 for the second.

RAPSLLRPRSPP and RDRFSWGRRSDN are within error of each other in protein stability index: 0.658 ± 0.12 for the first, 0.696 ± 0.041 for the second.

Going from SNFCIWRWWLGF to MSCLSDFPVCFL, the protein stability index rises from 0.6858 ± 0.0014 to 0.726 ± 0.037.

PPPPPLPRALST and RRSRPSSPYLPP are within error of each other in protein stability index: 0.72 ± 0.044 for the first, 0.707 ± 0.0094 for the second.

First: QYMDQIKGRSGT
Second: PLLAQSALFVIA
The protein stability index of the first is higher: 0.723 ± 0.0079 for the first, 0.5904 ± 0.0055 for the second.

ESQKKEKTKPKN and PRETRPDEAQRG are within error of each other in protein stability index: 0.655 ± 0.023 for the first, 0.726 ± 0.069 for the second.

Compared with VWRHSGRVASLA, VFEVNPRFDKLV is higher in protein stability index: 0.624 ± 0.0098 for the first, 0.758 ± 0.016 for the second.

First: SLSLHALPRPTT
Second: RFMDPFSGITAF
The protein stability index of the first is lower: 0.655 ± 0.029 for the first, 0.716 ± 0.018 for the second.

First: PPPPVPSLLLLS
Second: TGPIIPSDNRFL
The protein stability index of the first is lower: 0.579 ± 0.019 for the first, 0.692 ± 0.04 for the second.

KKEERTQKNEKK and SENKRKEHRMSF are within error of each other in protein stability index: 0.654 ± 0.011 for the first, 0.712 ± 0.05 for the second.

YGEGSPPCMPEL and SFPPTSPTHFPL are within error of each other in protein stability index: 0.709 ± 0.017 for the first, 0.703 ± 0.031 for the second.

PHWGKRINEAHT and SLCTAGCKNELW are within error of each other in protein stability index: 0.6851 ± 0.0029 for the first, 0.692 ± 0.076 for the second.

PLLRLVPVPSVI and PLTVPLPSPRLI are within error of each other in protein stability index: 0.5537 ± 0.0025 for the first, 0.645 ± 0.1 for the second.

PPPTPPSPPRPH and GFAAPSRPACLP are within error of each other in protein stability index: 0.71 ± 0.068 for the first, 0.696 ± 0.017 for the second.

Going from FVIWGCGVRSWC to SPASPLDPSSSS, the protein stability index rises from 0.618 ± 0.033 to 0.712 ± 0.037.

GGRGYRIKRKSV and DSQSRRFDRSRN are within error of each other in protein stability index: 0.806 ± 0.12 for the first, 0.671 ± 0.076 for the second.

LLATCGAIHTFC and SRSGPGEIVTTG are within error of each other in protein stability index: 0.637 ± 0.01 for the first, 0.688 ± 0.041 for the second.

LGGGGVGGVRGV and CHTDLPLLGTSR are within error of each other in protein stability index: 0.6675 ± 0.0046 for the first, 0.681 ± 0.022 for the second.

SDLPPCPSRPSP and HSWFSWSVVSEL are within error of each other in protein stability index: 0.661 ± 0.11 for the first, 0.7308 ± 0.0018 for the second.

PPTFPPPLPLPP and KLAHVKIKKTGK are within error of each other in protein stability index: 0.692 ± 0.031 for the first, 0.652 ± 0.018 for the second.

First: GVSGGDGSKCKE
Second: RRRLLLWEELVE
The protein stability index of the first is lower: 0.682 ± 0.016 for the first, 0.7706 ± 0.004 for the second.

First: PSYSFQYRLIQD
Second: SNPKLPYSGTLE
The protein stability index of the first is higher: 0.712 ± 0.038 for the first, 0.6685 ± 0.0015 for the second.

First: SWPMLSVLADER
Second: CSLTVGYNRHDV
The protein stability index of the first is higher: 0.717 ± 0.04 for the first, 0.635 ± 0.00084 for the second.

RACVCPCHPHRY and LRGGGKRREVMG are within error of each other in protein stability index: 0.737 ± 0.025 for the first, 0.702 ± 0.099 for the second.

RRWGGCPGVRGC and ALAPSAFSSSPL are within error of each other in protein stability index: 0.666 ± 0.019 for the first, 0.6645 ± 0.0022 for the second.

DGCLMEHSMQVG and SVGPWVSSGGFR are within error of each other in protein stability index: 0.656 ± 0.035 for the first, 0.6664 ± 0.0048 for the second.

First: APPRLTTLSMNL
Second: LRPILLSWFRKS
The protein stability index of the first is higher: 0.696 ± 0.0073 for the first, 0.61 ± 0.039 for the second.

Going from AAMKQAIKGPVK to RERKEVGRRRIG, the protein stability index falls from 0.696 ± 0.019 to 0.604 ± 0.022.

LPLPHPRLPPRP and TKKDNKYNRNKK are within error of each other in protein stability index: 0.684 ± 0.049 for the first, 0.656 ± 0.029 for the second.

RGHKHSNNVSRR and ICEYGLKRKIHF are within error of each other in protein stability index: 0.696 ± 0.019 for the first, 0.68199 ± 0.0006 for the second.

YIVARMVRAVIP and FVGRWSSRSRGH are within error of each other in protein stability index: 0.741 ± 0.035 for the first, 0.768 ± 0.022 for the second.

RWGWWGYRGGVP and PPLRPPPLHPPR are within error of each other in protein stability index: 0.744 ± 0.025 for the first, 0.705 ± 0.036 for the second.

EKKKKKTAKQLK and SPPHASPPVLPW are within error of each other in protein stability index: 0.671 ± 0.085 for the first, 0.72 ± 0.028 for the second.

RDGGVHVFATLM and PPLPTPPPPPDP are within error of each other in protein stability index: 0.626 ± 0.018 for the first, 0.662 ± 0.052 for the second.

Going from AGPPPIFGHHTQ to KTNLGNTKVKKK, the protein stability index falls from 0.765 ± 0.036 to 0.613 ± 0.025.

APPPPPVPLPPP and SLSLPSSVIVGS are within error of each other in protein stability index: 0.722 ± 0.024 for the first, 0.624 ± 0.089 for the second.

TKNTEGVKNSLF and LFLLSLLDWGFR are within error of each other in protein stability index: 0.64 ± 0.096 for the first, 0.661 ± 0.072 for the second.

Compared with YRLAPPPHPPPP, RRATHTRDINNL is higher in protein stability index: 0.576 ± 0.021 for the first, 0.643 ± 0.015 for the second.

Going from VVCLGLPIQAGV to AGSRPCPGWPPG, the protein stability index rises from 0.526 ± 0.017 to 0.691 ± 0.011.

First: TWCSFHFYSFWC
Second: SIPSIPTLHENT
The protein stability index of the first is lower: 0.578 ± 0.01 for the first, 0.67593 ± 0.00066 for the second.

Going from PCLVLSLYSDLP to RLPQIHSDREQK, the protein stability index rises from 0.68 ± 0.032 to 0.746 ± 0.018.
